Positions count from the first letter of the chain named. In names and notes the source's numbering stands. One block for each binder: values may come before it.
Key:
[1] = target: T1, human GFRα3 expressed with a C-terminal hFc tag (human); experiment: blocking ELISA 1, hGFRα3-hFc to coated hARTEMIN-mmH
T1 construct: also called hGFRα3-hFc
Description: A constant amount of human GFRα3 fused with a C-terminal human Fc tag (hGFRα3-hFc; SEQ ID:371) at 120 pM was pre-mixed with varying amounts of antibodies, ranging from 0 to ˜10 nM in serial dilutions, followed by an 1 hour incubation at room temperature (RT) to allow antibody-hGFRα3-hFc binding to reach equilibrium. The equilibrated sample solutions were then transferred to the hARTEMIN-mmH-coated plate. […] Absorbance was recorded at 450 nm on a Victor X5 plate reader (Perkin Elmer) to determine the amount of free hGFRα3-hFc in the pre-equilibrated hGFRα3-hFc-antibody solutions that was able to bind to the plate coated with hARTEMIN-mmH. IC₅₀ values, defined as the concentration of antibody required to reduce the signal from a constant concentration of hGFRα3-hFc by 50%, were calculated from the data using Prism software from GraphPad. The absorbance measured at the constant amount of 120 pM hGFRα3-hFc in the absence of anti-GFRα3 antibody is defined as 0% blocking and the absorbance with no added hGFRα3-hFc is defined as 100% blocking. The observed absorbance in the wells containing the highest antibody concentration was used to calculate the maximum blocking percent shown in the table.

[2] = target: T1, human GFRα3 expressed with a C-terminal …; experiment: BLI Octet, antigen on anti-hFc tips, 100 ug/mL Ab
Description: (§1) The ability of anti-GFRα3 antibodies to bind to GDNF-family receptors was assessed using an Octet Red biosensor (Fortebio, Inc.). Antibodies were tested for binding to either human GFRα1 expressed with a C-terminal human Fc tag and a hexahistidine tag (hGFRα1-hFc-6His, R&D Systems #714-GR), human GFRα1 expressed with only a C-terminal human Fc tag (hGFRα1-hFc; SEQ ID: 376), human GFRα2 expressed with a C-terminal human Fc tag and a hexahistidine tag (hGFRα2-hFc-6His, R&D Systems #613-FR), human GFRα3 expressed with a C-terminal human Fc tag (hGFRα3-hFc, SEQ ID:371), or an irrelevant human Fc tagged protein. Antigens were captured onto anti-human Fc sensor tips from 10 ug/mL solutions for 5 minutes. The coated sensor tips were then blocked with a 100 ug/mL solution of irrelevant human Fc antibodies for 5 minutes. Blocked sensor tips were then submerged into wells containing […] of each anti-GFRα3 antibody or buffer alone for 10 minutes. The experiment was performed at 25° C. with a flow rate of 1000 rpm using HBST+BSA buffer (10 mM HEPES, 150 mM NaCl, 3 mM EDTA, 0.05% w/v Surfactant P20, 0.1 mg/mL BSA, pH 7.4). The binding response (measured in units of nm) at each step of the experiment was monitored and recorded.

[3] = target: T2, irrelevant human Fc tagged protein; experiment: BLI Octet, antigen on anti-hFc tips, 100 ug/mL Ab
T2 construct: negative control antigen; also called Irrelevant hFc tagged protein
Description: as §1

[4] = target: T3, human GFRα1 expressed with a C-terminal human Fc tag and a hexahistidine tag (human, UniProt P56159 25-429, limits assumed); experiment: BLI Octet, antigen on anti-hFc tips, 100 ug/mL Ab
T3 construct: bought protein; also called hGFRα1-hFc-6His; hGFRα1-hFc-6his
T3 sequence (looked up): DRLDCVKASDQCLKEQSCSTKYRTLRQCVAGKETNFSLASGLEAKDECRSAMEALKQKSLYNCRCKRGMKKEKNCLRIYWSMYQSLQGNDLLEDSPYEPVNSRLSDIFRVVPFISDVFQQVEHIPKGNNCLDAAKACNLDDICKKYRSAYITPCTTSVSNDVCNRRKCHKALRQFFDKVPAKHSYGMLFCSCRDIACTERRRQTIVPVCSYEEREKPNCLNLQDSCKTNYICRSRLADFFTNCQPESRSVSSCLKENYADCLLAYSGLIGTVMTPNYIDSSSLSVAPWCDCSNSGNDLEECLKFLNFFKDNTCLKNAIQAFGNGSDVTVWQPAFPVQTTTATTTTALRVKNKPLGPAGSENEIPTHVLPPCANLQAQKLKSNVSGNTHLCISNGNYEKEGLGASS
Description: as §1

[5] = target: T4, human GFRα1 expressed with only a C-terminal human Fc tag (human); experiment: BLI Octet, antigen on anti-hFc tips, 100 ug/mL Ab
T4 construct: also called hGFRα1-hFc
Description: as §1

[6] = target: T5, human GFRα2 expressed with a C-terminal human Fc tag and a hexahistidine tag (human, UniProt O00451 22-441, limits assumed); experiment: BLI Octet, antigen on anti-hFc tips, 100 ug/mL Ab
T5 construct: bought protein; also called hGFRα2-hFc-6His; hGFRα2-hFc-6his
T5 sequence (looked up): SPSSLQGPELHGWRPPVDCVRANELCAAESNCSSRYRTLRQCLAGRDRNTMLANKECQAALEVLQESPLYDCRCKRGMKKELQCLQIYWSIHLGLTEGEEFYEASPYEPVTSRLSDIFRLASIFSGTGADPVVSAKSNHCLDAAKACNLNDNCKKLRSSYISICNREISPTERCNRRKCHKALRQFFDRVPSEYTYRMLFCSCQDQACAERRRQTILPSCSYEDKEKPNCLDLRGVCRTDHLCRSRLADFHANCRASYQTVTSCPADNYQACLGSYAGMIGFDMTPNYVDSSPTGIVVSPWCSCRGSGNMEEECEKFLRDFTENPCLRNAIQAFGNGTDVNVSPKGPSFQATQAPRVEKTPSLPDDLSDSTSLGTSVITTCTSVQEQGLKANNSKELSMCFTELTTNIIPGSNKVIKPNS
Description: as §1

T1 sequence (chain, as listed by the source limits assumed): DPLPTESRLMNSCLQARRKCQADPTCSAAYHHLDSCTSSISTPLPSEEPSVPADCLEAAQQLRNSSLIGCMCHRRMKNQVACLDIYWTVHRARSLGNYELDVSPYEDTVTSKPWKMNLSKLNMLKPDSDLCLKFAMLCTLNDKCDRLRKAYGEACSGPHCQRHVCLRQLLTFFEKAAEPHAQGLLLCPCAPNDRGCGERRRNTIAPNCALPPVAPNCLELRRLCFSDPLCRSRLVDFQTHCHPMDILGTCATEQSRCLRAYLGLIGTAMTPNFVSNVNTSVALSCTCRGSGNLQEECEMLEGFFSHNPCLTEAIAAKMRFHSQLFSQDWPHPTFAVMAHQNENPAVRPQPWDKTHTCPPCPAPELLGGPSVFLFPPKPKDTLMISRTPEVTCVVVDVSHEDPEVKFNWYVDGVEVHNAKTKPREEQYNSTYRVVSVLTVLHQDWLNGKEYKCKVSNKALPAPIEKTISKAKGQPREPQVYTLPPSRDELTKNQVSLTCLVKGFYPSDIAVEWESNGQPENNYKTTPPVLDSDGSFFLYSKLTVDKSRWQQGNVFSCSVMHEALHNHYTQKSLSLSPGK

B2: H4H2294S (antibody, human IgG4, V domains shown)
VH: EVQLVESGGGLVQPGGSLRLSCAASGFTFSSYAMSWVRQAPGKGLEWVSVISGSGGSTYYADAVKGRFTISRDNSKHTLYLQMNSLRAEDTAVYYCTKPSSYSSSNFYYGMDVWGQGSTVTVSS
VL: DIQLTQSPSSVSASVGDRVTITCRASQGISSWLAWYQQKPGKAPKLLIYAASSLQSGVPSRFSGSGSGTDFTLTISSLQPEDFATYYCQQTNSFPFPFGPGTKVDIK
notes: human IgG4 Fc (H4H)
Bound (nm) [2]: 1.17 nm | Bound (nm) [3]: 0.03 nm | Bound (nm) [4]: 0.03 nm | Bound (nm) [5]: 0.04 nm | Bound (nm) [6]: 0.06 nm

B3: H4H2350P (antibody, human IgG4, V domains shown)
VH: QVQLQESGPGLVKPSETLSLTCTVSGGSISTYYWSWFRQPPGKGLEWIGYIYYSGSTNHNPSLKSRVTISVDTSKNQFSLKLRSVTAADTAVYYCARVGPVGWGSWGNFDYWGQGTLVTVSS
VL: DIQLTQSPSFLSASVGDRVTITCWASQGISSYLAWSQQKPGKAPKLLIYAASTLQSGVPSRFSGSGSGTEFTLTISSLQPEDFATYYCQQLNSYPWTFGQGTKVEIK
notes: human IgG4 Fc (H4H)
% max blocking [1]: 93% | IC50 [1]: 0.496 nM

B4: H4H2243N2 (antibody, human IgG4, V domains shown)
VH: QVQLVQSGAEVKKPGASVKVSCKASGYTFTSYGIIWVRQAPGQGLEWMGWISGYNGNTNYAQNLQGRVTMTTDTSTTTAYMELRSLRSDDTAVYYCARWGIATRPYYYYGMDVWGQGTTVTVSS
VL: DIQMTQSPSSLSASVGDRVTITCRASQDITNYLAWFQQKPGKAPKSLIYAASSLQSGVPSKFSGSGSGTDFTLTISSLQPEDFATYYCQQYNSYPPTFGPGTKVDIK
notes: human IgG4 Fc (H4H)
Bound (nm) [2]: 1.11 nm | Bound (nm) [3]: 0.03 nm | Bound (nm) [4]: 0.03 nm | Bound (nm) [5]: 0.03 nm | Bound (nm) [6]: 0.06 nm

B5: H4H2292S (antibody, human IgG4, V domains shown)
VH: EVQLVESGGGVVQPGRSLRLSCAASGFTFSSYGMHWVRQAPGKGLEWVSFIWYDGSNKYYADSVKGRFTISRDNSKNTLYLQMNSLTAEDTAVYYCARRGILTGTTAFDIWGQGTMVTVSS
VL: DIQMTQSPSSLSASVGDRVTITCRASQSISSYLNWYQQKPGKAPKLLIYAASSLQSGVPSRFSGSGSGTDFTLTIRSLIPEDFATYYCQQTYNTPFTFGPGTKVEIK
notes: human IgG4 Fc (H4H)
% max blocking [1]: 89% | IC50 [1]: 0.723 nM | Bound (nm) [2]: 1.04 nm | Bound (nm) [3]: 0.02 nm | Bound (nm) [4]: 0.03 nm | Bound (nm) [5]: 0.05 nm | Bound (nm) [6]: 0.05 nm

B6: H4H2344S (antibody, human IgG4, V domains shown)
VH: EVQLVESGGGVVQPGRSLRLSCAASGFSFSDYVMHWVRQAPGKGLEWVASIWFDGSNEFYADSVKGRFTISRDNSKNTLFLQMNSLRAEDTAVYYCAKKGVLVATSAFDIWGQGTMVTVSS
VL: DIQMTQSPSSLSASVGDRVTITCRASQSINNYLNWYHQKPGKAPKLLIYAASSLQSGVPSRFSGSGSGTDYTLTISSLQPEDFGNYYCQQSYRTSMYTFGQGTKVEIK
notes: human IgG4 Fc (H4H)
% max blocking [1]: 94% | IC50 [1]: 0.133 nM

B8: H4H2293P (antibody, human IgG4, V domains shown)
VH: B6 VH with E1Q, F59L, D109H
VL: B6 VL with D1A, S28N, K45N, R93S, V105L
notes: human IgG4 Fc (H4H)
% max blocking [1]: 93% | IC50 [1]: 0.26 nM

B10: H4H2342P (antibody, human IgG4, V domains shown)
VH: EVQLLESGGGLVQPGGSLRLSCAASGFTFSTYAMSWVRQAPGKGLEWVSAIRGNGVNTYYGDSMKGRFTISRDNSKDTLYLQMNSLRAEDTAVYYCAKNKWELLVFEYWGQGTLVTVSS
VL: DIQMTQSPSSLSASVGDRVTITCRASQDISNYLAWYQQKPGKVPKLLIYAASTLQSGVPFRFSGSGSGTDFTLTISSLQPEDVATYYCQKYNSAPPFGPGTKVDIK
notes: human IgG4 Fc (H4H)
Bound (nm) [2]: 1.59 nm | Bound (nm) [3]: 0.07 nm | Bound (nm) [4]: 0.08 nm | Bound (nm) [5]: 0.06 nm | Bound (nm) [6]: 0.12 nm

More lines, in order of falling IC50 [1], values ahead:

% max blocking [1]: 92% | IC50 [1]: 0.116 nM
B9: H4H2354S (antibody, human IgG4, V domains shown)
VH: B6 VH with E1Q
VL: B6 VL with M4L
notes: human IgG4 Fc (H4H); also called H4H2354S-1

% max blocking [1]: 92% | IC50 [1]: 0.0978 nM
B7: H4H2346S (antibody, human IgG4, V domains shown)
VH: B6 VH with E1Q
VL: B6 VL with D1E, Q3V
notes: human IgG4 Fc (H4H)

% max blocking [1]: 51% | IC50 [1]: 0.0658 nM | Bound (nm) [2]: 1.25 nm | Bound (nm) [3]: 0.03 nm | Bound (nm) [4]: 0.03 nm | Bound (nm) [5]: 0.02 nm | Bound (nm) [6]: 0.04 nm
B1: H4H2352S (antibody, human IgG4, V domains shown)
VH: EVQLVQSGAEVKKPGASVKVSCKASGYTFTNYGITWVRQAPGQGLEWMGWISAYNGNTGYAQKFQGRVTMTTDTSTSTAYMELRSLRSDDTAVYYCAREDYDFWRAFDIWGQGTMVTVSS
VL: EIVLTQSPGTLSLSPGERATLSCRASQSVSSTYLAWLQQKPGQAPRLLIYGASSRATGIPDRFSGSGSGTDFTLTINRLEPEDFAVYYCQQYAYSPYTFGQGTKLEIK
notes: human IgG4 Fc (H4H); also called H4H2352S-1

% max blocking [1]: 81% | IC50 [1]: 0.0438 nM | Bound (nm) [2]: 1.18 nm | Bound (nm) [3]: 0 nm | Bound (nm) [4]: -0.01 nm | Bound (nm) [5]: 0 nm | Bound (nm) [6]: 0.02 nm
B11: H4H2212N (antibody, human IgG4, V domains shown)
VH: EVQLLESGGGLVQPGGSLRLSCAASGFTFSSYAMSWVRQGPGKGLEWVSGISGSGGSTYNADSVKGRFTISRDNSKNTLYLQMNSLRAEDTAVYYCAKDSGTYWYYFDYWGQGILVTVSS
VL: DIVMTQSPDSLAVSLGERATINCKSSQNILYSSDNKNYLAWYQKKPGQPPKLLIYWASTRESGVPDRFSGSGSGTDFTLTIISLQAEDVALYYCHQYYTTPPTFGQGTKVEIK
notes: human IgG4 Fc (H4H)
